Measurements as given in patent US11912777 (NANJING LEADS BIOLABS, dated 2024).

What was measured:
[1] = biological target: T1, human 4-1BB (Sino Biological, Cat #10041-H08H) (human, UniProt Q07011 24-186); experiment: ELISA, protein coated
T1 construct: Bought reagent coated on ELISA plates

[2] = biological target: T2, human CD40 (Sino Biological, Cat #10774-H08H) (human, UniProt P25942 21-193); experiment: ELISA, protein coated
T2 construct: Bought reagent coated on ELISA plates

[3] = biological target: T3, human OX40 (Sino Biological, Cat #10481-H08H) (human, UniProt P43489 29-216); experiment: ELISA, protein coated
T3 construct: Bought reagent coated on ELISA plates
T3 sequence (looked up): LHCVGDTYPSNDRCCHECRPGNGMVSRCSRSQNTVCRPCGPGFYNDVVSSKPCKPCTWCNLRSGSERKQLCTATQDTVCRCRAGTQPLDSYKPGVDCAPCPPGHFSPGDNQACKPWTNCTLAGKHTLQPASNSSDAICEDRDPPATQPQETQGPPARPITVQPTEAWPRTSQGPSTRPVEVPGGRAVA

[4] = biological target: T4, human GITR (Sino Biological, Cat #13643-H08H) (human, UniProt Q9Y5U5 26-161); experiment: ELISA, protein coated
T4 construct: Bought reagent coated on ELISA plates
T4 sequence (looked up): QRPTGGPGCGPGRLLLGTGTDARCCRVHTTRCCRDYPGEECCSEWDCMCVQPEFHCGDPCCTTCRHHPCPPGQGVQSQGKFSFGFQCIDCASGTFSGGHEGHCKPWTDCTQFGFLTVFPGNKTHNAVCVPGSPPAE

[5] = biological target: T5, human CD27 (Sino Biological, Cat #10039-H31H) (human, UniProt P26842 20-192); experiment: ELISA, protein coated
T5 construct: Bought reagent coated on ELISA plates
T5 sequence (looked up): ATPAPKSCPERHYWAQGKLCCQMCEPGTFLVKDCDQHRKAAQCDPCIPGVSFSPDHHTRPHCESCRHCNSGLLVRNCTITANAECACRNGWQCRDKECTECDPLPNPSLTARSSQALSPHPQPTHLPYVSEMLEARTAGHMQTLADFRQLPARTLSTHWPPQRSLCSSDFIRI

[6] = biological target: T6, human HVEM (Sino Biological, Cat #10334-H03H) (human, UniProt Q92956 39-202); experiment: ELISA, protein coated
T6 construct: Bought reagent coated on ELISA plates
T6 sequence (looked up): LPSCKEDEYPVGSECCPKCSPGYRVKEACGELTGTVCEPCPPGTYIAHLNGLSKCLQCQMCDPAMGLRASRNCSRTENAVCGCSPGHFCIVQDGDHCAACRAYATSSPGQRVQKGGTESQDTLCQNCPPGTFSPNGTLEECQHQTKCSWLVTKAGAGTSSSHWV

[7] = biological target: T7, human TNFR2, mouse Fc-tag (human); experiment: ELISA, huTNFR2-mFc coated
T7 construct: also called hTNFR2-mFc; huTNFR2-mFc
T7 chain: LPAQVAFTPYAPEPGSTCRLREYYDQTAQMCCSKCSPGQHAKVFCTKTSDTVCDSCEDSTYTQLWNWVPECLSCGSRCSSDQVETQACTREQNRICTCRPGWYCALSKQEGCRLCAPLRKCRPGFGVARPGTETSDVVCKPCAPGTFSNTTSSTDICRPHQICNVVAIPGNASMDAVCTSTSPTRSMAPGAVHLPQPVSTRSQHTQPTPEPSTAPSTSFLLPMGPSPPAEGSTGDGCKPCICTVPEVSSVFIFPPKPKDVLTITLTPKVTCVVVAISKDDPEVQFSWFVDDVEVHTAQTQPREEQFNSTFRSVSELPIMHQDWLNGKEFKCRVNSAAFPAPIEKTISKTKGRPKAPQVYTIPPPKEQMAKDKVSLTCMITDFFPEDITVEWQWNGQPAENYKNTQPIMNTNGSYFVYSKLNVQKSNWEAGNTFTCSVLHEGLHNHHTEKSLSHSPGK

[8] = biological target: T8, mouse TNFR2 variant 019-1 (human segment 17T-54D) (mouse with a human segment); experiment: ELISA, TNFR2 variant coated at 0.5 µg/mL
T8 construct: Mouse TNFR2 extracellular domain with the human segment, followed by a human Fc
T8 sequence (chain, as listed by the source mutant limits assumed): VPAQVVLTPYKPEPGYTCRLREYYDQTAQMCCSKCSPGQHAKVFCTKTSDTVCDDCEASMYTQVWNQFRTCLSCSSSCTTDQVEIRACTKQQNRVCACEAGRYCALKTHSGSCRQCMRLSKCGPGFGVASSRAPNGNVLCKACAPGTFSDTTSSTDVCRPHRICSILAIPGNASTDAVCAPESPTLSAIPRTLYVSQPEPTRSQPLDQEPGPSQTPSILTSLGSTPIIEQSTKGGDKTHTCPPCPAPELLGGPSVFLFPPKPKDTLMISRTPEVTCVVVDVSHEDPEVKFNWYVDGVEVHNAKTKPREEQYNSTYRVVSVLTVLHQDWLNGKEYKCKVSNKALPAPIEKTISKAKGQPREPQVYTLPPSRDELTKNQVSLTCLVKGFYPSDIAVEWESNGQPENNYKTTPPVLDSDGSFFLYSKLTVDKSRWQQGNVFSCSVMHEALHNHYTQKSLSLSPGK

[9] = biological target: T9, mouse TNFR2 variant 019-3 (human segment 98T-141K) (mouse with a human segment); experiment: ELISA, TNFR2 variant coated at 0.5 µg/mL
T9 construct: Mouse TNFR2 extracellular domain with the human segment, followed by a human Fc
T9 sequence (chain, as listed by the source mutant limits assumed): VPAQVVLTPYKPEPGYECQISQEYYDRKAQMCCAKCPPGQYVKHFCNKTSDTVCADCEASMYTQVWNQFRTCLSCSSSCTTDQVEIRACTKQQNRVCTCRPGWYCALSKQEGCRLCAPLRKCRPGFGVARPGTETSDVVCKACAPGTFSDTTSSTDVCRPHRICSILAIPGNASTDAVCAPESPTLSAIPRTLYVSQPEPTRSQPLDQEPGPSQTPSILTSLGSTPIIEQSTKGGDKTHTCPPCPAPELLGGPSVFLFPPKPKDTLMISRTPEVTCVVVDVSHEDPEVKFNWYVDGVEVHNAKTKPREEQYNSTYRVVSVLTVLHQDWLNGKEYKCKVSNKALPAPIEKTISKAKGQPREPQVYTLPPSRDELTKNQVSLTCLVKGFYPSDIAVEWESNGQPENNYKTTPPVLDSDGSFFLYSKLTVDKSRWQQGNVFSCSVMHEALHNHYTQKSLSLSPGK

[10] = biological target: T10, mouse TNFR2 variant 019-4 (human segment 143P-181T) (mouse with a human segment); experiment: ELISA, TNFR2 variant coated at 0.5 µg/mL
T10 construct: Mouse TNFR2 extracellular domain with the human segment, followed by a human Fc
T10 sequence (chain, as listed by the source mutant limits assumed): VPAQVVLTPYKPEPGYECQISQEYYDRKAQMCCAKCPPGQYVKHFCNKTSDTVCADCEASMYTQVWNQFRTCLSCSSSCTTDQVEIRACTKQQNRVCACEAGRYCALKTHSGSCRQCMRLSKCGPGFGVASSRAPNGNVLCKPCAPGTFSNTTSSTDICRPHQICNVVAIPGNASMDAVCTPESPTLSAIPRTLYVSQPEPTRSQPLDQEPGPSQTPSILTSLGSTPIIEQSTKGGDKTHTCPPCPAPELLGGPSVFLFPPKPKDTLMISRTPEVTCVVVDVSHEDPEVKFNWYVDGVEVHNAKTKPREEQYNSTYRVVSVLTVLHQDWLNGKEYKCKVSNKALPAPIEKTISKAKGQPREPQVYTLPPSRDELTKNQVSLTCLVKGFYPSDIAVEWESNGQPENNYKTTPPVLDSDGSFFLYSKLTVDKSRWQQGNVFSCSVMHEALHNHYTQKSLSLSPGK

[11] = biological target: T11, mouse TNFR2 variant 019-0.5-1 (human segment 17T-31C) (mouse with a human segment); experiment: ELISA, TNFR2 variant coated at 0.5 µg/mL
T11 construct: Mouse TNFR2 extracellular domain with the human segment, followed by a human Fc
T11 sequence (chain, as listed by the source mutant limits assumed): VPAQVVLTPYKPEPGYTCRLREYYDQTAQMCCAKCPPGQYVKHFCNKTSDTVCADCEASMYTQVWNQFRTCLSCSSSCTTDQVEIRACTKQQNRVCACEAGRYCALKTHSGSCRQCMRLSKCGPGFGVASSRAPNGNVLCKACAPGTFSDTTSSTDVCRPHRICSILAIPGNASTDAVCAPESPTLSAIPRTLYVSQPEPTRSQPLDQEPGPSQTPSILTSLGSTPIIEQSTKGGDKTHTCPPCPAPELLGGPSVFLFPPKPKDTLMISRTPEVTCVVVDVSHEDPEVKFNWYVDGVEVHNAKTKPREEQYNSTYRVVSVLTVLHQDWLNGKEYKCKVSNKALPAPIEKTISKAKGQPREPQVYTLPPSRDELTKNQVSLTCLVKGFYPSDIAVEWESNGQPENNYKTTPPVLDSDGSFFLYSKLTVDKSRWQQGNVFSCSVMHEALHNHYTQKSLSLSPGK

Q4A = biological target: T12, Q4A; experiment: ELISA on coated human TNFR2 mutant Q4A; lower panel
T12 construct: also called human TNFR2 Q4A
T12 receptor: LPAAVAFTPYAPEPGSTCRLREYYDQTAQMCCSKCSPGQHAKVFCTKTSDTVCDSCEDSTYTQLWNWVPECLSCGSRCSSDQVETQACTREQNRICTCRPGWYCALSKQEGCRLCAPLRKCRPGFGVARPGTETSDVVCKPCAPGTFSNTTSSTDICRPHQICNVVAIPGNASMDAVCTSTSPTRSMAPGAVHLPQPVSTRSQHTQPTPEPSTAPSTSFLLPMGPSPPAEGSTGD

E13A = biological target: T13, E13A; experiment: ELISA on coated human TNFR2 mutant E13A; lower panel
T13 construct: also called human TNFR2 E13A
T13 receptor: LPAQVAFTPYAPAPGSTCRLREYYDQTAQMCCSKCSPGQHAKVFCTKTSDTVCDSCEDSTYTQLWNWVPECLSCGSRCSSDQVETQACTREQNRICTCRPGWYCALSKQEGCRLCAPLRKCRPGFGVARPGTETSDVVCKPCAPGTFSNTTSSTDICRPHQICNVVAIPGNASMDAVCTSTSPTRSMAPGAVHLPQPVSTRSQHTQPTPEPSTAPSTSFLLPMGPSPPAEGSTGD

[12] = biological target: T14, cynomolgus monkey TNFR2 expressed on the cell surface of 293T cells (cynomolgus monkey, UniProt P20333 23-283 (human entry)); experiment: flow cytometry on 293T cells expressing cynomolgus TNFR2; left panel; unit from the axis
T14 construct: the entry ends shortly after the transmembrane stretch and includes the signal peptide; also called CynoTNFR2; cynomolgus TNFR2 on cell surface
T14 chain: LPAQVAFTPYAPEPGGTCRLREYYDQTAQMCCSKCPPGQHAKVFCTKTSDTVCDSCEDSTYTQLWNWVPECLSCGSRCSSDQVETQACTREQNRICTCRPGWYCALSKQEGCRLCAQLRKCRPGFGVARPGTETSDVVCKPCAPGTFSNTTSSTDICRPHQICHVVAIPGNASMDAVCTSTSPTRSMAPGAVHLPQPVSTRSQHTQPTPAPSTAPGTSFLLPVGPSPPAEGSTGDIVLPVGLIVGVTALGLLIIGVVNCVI

T2 sequence (P25942 21-193 limits assumed): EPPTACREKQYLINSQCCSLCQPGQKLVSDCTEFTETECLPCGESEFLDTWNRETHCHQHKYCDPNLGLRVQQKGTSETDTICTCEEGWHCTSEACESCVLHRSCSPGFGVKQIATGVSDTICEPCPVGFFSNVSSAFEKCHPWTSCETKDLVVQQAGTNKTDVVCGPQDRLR

B1: humanized antibody hu3-E (Hu3-H3/Hu3-L1) (antibody, human IgG1, kappa, V domains shown)
VH: QIQLVQSGAEVKKPGASVKVSCKASGYTFTTYGMSWVRQAPGQGLEWMGWIHTYSGVPTYADDFKGRFAFTLDTSTSTAYMELRSLRSDDTAVYYCARGLYGVDYWGQGTLVTVSS
VL: EIVMTQSPATLSLSPGERATLSCKASENVVTYVSWYQQKPGQAPRLLIYGASNRYTGIPARFSGSGSATDFTLTISSLQPEDFAVYYCGQSYTYPYTFGQGTKLEIKR
notes: Humanized form of 43B7A4, human IgG1/kappa
[1]
  binding result: no binding (tested: starting concentration 0.4 µg/mL)
[2]
  binding result: no binding (tested: starting concentration 0.4 µg/mL)
[3]
  binding result: no binding (tested: starting concentration 0.4 µg/mL)
[4]
  binding result: no binding (tested: starting concentration 0.4 µg/mL)
[5]
  binding result: no binding (tested: starting concentration 0.4 µg/mL)
[6]
  binding result: no binding (tested: starting concentration 0.4 µg/mL)
[7]
  EC50: 50.8 pM
[8]
  binding result: no binding (tested: starting concentration 0.4 µg/mL)
[9]
  binding result: no binding (tested: starting concentration 0.4 µg/mL)
[10]
  binding result: no binding (tested: starting concentration 0.4 µg/mL)
[11]
  binding result: no binding (tested: starting concentration 0.4 µg/mL)
Q4A
  binding result: binds
E13A
  binding result: binds
[12]
  EC50: 671 pM
